This is an account of results in paper PMC7076203.

This assay concerns the target WT APP (amyloid precursor protein) stably expressed in H4-APPwt cells (human) (UniProt P05067).

Sequence of WT APP (amyloid precursor protein) stably expressed in H4-APPwt cells (human) (P05067 18-770): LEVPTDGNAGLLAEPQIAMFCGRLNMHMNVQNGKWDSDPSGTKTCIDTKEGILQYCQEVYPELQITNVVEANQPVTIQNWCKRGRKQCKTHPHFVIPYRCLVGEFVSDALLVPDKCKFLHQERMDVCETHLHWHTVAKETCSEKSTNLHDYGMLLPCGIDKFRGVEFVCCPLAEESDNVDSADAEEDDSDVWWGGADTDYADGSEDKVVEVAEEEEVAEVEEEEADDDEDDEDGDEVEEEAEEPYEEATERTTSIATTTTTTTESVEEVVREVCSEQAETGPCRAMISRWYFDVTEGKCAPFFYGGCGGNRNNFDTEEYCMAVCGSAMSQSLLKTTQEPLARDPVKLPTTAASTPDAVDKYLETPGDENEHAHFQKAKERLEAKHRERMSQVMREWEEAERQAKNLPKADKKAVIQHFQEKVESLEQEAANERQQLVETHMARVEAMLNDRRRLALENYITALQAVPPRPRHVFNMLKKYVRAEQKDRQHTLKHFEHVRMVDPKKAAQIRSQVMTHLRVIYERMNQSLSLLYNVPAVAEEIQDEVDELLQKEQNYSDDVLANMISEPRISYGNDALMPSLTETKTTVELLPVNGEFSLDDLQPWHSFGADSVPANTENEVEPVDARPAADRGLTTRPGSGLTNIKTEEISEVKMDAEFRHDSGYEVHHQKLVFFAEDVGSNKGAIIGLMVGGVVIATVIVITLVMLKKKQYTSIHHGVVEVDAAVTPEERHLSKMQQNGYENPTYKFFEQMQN
Sequence of GAL3BP (preparation not stated) (Q08380 19-585): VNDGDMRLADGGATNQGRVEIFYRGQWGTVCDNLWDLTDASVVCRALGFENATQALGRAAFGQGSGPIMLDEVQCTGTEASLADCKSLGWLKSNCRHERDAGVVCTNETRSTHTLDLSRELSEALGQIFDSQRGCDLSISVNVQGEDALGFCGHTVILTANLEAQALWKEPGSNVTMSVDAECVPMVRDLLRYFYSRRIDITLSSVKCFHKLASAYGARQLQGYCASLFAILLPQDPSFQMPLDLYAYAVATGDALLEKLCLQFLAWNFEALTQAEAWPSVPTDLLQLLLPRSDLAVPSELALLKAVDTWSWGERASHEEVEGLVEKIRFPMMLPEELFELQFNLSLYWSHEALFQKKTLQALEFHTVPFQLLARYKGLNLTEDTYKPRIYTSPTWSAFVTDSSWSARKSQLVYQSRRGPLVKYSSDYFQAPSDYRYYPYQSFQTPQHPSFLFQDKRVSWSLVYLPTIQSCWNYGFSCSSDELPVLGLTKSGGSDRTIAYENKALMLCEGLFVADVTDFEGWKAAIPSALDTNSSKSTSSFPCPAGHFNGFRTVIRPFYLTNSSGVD

In turn, “GAL3BP (preparation not stated) (from UniProt Q08380 19-585) (natural protein)” registered a suppression of Aβ40 and Aβ42 production in H4-APPwt cells by GAL3BP of 30%.
